# Reference: article PMC8408231, “The basic helix-loop-helix transcription factor TabHLH1 increases chlorogenic acid and luteolin biosynthesis in Taraxacum antungense Kitag”
# T1: TabHLH1 (Taraxacum antungense Kitag, UniProt A0A482LNV1 1-521)
# T1 sequence: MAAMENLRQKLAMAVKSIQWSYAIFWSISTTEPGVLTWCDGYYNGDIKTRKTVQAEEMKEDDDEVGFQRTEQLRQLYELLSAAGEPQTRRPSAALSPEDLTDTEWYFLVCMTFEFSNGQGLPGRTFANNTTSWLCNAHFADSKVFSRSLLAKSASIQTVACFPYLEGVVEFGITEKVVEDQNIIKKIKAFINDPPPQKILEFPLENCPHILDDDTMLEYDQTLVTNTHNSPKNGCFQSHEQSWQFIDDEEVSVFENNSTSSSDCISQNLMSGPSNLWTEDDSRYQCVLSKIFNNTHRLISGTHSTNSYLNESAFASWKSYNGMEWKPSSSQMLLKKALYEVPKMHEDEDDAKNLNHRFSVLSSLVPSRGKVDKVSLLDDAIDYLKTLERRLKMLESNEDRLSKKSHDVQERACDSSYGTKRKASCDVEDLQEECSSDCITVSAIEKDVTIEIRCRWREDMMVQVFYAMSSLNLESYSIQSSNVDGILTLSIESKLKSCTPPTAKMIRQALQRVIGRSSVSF
# B1: TaHQT2 promoter E-box probe (dsDNA)
# DNA 1: CGAACGGAGGAACATGTGTGCTCTGAAAAT
# DNA 2: ATTTTCAGAGCACACATGTTCCTCCGTTCG
# B2: Ta4CL promoter E-box probe (dsDNA)
# DNA 1: TGGCCAAAATCCCATGTGATTTCGGCCCAC
# DNA 2: GTGGGCCGAAATCACATGGGATTTTGGCCA
# Target: T1, TabHLH1
# Test: EMSA; unlabeled identical cold probe used as control; EMSA binding buffer (Beyotime, 10x stock), 25 °C, 30 min; salt and pH not stated
# Conditions: protein: recombinant; tags: GST (pGEX4T-1); chain copies: 2; label: 3' biotin on both strands; blunt
row,Binder,binding result
1,B1,binds
2,B2,binds
